± gives the uncertainty stated by the source.

Sequences and labels used below:
B1: CD2-associated protein, residues 1 to 59; numbered along this chain, Q9Y5K6 (parent)
chain: MVDYIVEYDYDAVHDDELTIRVGEIIRNVKKLQEEGWLEGELNGRRGMFPDNFVKEIKR
B2: Pyruvate dehydrogenase protein X component, mitochondrial, residues 181 to 227; numbered along this chain, O00330 (parent)
chain: RFRLSPAARNILEKHSLDASQGTATGPRGIFTKEDALKLVQLKQTGK

The variants in the first series derive from B1. The series can be described thus: abundance fitness (aPCA) (normalised: wild type 0, dead -1); higher = more abundant; growth selection in yeast, the domain comes from the species named. The conditions noted are these: Homo sapiens.
Regarding MVDYIVEYDYDAVHDDELTIRVGEIIRNVKKLQEEGWLEGELNGRRGMFPDNFVKKIKR, the abundance fitness stood at 0.024 ± 0.28.

With MVDYIVEYDYDAVHDDELTIRVGEIIRNVKKLQEEGWLEGELNGRRGMFPDNFVKSIKR, the abundance fitness was -0.256 ± 0.11.

Turning to MVDYIVEYDYDAVHDDELTIRVGEIIRNVKKLQEEGWLEGELNGRRGMFPDNFVKPIKR, the abundance fitness was determined as 0.06 ± 0.19.

As to MVDYIVEYDYDAVHDDELTIRVGEIIRNVKKLQEEGWLEGELNGRRGMFPDNFVKQIKR, the abundance fitness is -0.217 ± 0.25.

On to MVDYIVEYDYDAVHDDELTIRVGEIIRNVKKLQEEGWLEGELNGRRGMFPDNFVKRIKR, for which the abundance fitness was -0.137 ± 0.089.

Turning to MVDYIVEYDYDAVHDDELTIRVGEIIRNVKKLQEEGWLEGELNGRRGMFPDNFVKAIKR, the abundance fitness is -0.002 ± 0.12.

As for MVDYIVEYDYDAVHDDELTIRVGEIIRNVKKLQEEGWLEGELNGRRGMFPDNFVKIIKR, the abundance fitness is -0.286 ± 0.44.

With MVDYIVEYDYDAVHDDELTIRVGEIIRNVKKLQEEGWLEGELNGRRGMFPDNFVKCIKR, the abundance fitness was -0.044 ± 0.4.

MVDYIVEYDYDAVHDDELTIRVGEIIRNVKKLQEEGWLEGELNGRRGMFPDNFVKTIKR: the abundance fitness was -0.244 ± 0.17.

Take MVDYIVEYDYDAVHDDELTIRVGEIIRNVKKLQEEGWLEGELNGRRGMFPDNFVKMIKR: the abundance fitness was -0.152 ± 0.21.

As to MVDYIVEYDYDAVHDDELTIRVGEIIRNVKKLQEEGWLEGELNGRRGMFPDNFVKVIKR, the abundance fitness is -0.05 ± 0.27.

Turning to MVDYIVEYDYDAVHDDELTIRVGEIIRNVKKLQEEGWLEGELNGRRGMFPDNFVKLIKR, the abundance fitness is -0.18 ± 0.1.

For the variant MVDYIVEYDYDAVHDDELTIRVGEIIRNVKKLQEEGWLEGELNGRRGMFPDNFVSEIKR, the abundance fitness is -0.07 ± 0.079.

Turning to MVDYIVEYDYDAVHDDELTIRVGEIIRNVKKLQEEGWLEGELNGRRGMFPDNFVWEIKR, the abundance fitness is -0.771 ± 0.32.

On to MVDYIVEYDYDAVHDDELTIRVGEIIRNVKKLQEEGWLEGELNGRRGMFPDNFVYEIKR, for which the abundance fitness is -0.294 ± 0.23.

MVDYIVEYDYDAVHDDELTIRVGEIIRNVKKLQEEGWLEGELNGRRGMFPDNFVKEIRR: the abundance fitness was -0.036 ± 0.14.

For MVDYIVEYDYDAVHDDELTIRVGEIIRNVKKLQEEGWLEGELNGRRGMFPDNFVKEIVR, the abundance fitness was -0.315 ± 0.29.

In the case of MVDYIVEYDYDAVHDDELTIRVGEIIRNVKKLQEEGWLEGELNGRRGMFPDNFVKEICR, the abundance fitness was -0.099 ± 0.24.

Consider MVDYIVEYDYDAVHDDELTIRVGEIIRNVKKLQEEGWLEGELNGRRGMFPDNFVKEIGR, for which the abundance fitness was -0.008 ± 0.29.

Take MVDYIVEYDYDAVHDDELTIRVGEIIRNVKKLQEEGWLEGELNGRRGMFPDNFVKEIER: the abundance fitness came to 0.001 ± 0.22.

As for MVDYIVEYDYDAVHDDELTIRVGEIIRNVKKLQEEGWLEGELNGRRGMFPDNFVKEIAR, the abundance fitness was -0.021 ± 0.27.

MVDYIVEYDYDAVHDDELTIRVGEIIRNVKKLQEEGWLEGELNGRRGMFPDNFVKEIQR: the abundance fitness came to 0.059 ± 0.43.

On to MVDYIVEYDYDAVHDDELTIRVGEIIRNVKKLQEEGWLEGELNGRRGMFPDNFVKEIMR, for which the abundance fitness is -0.138 ± 0.25.

As to MVDYIVEYDYDAVHDDELTIRVGEIIRNVKKLQEEGWLEGELNGRRGMFPDNFVKEVKR, the abundance fitness is -0.03 ± 0.37.

Turning to MVDYIVEYDYDAVHDDELTIRVGEIIRNVKKLQEEGWLEGELNGRRGMFPDNFVKEGKR, the abundance fitness is -0.157 ± 0.24.

As to MVDYIVEYDYDAVHDDELTIRVGEIIRNVKKLQEEGWLEGELNGRRGMFPDNFVKERKR, the abundance fitness is -0.007 ± 0.25.

Take MVDYIVEYDYDAVHDDELTIRVGEIIRNVKKLQEEGWLEGELNGRRGMFPDNFVKEPKR: the abundance fitness was -0.326 ± 0.31.

With MVDYIVEYDYDAVHDDELTIRVGEIIRNVKKLQEEGWLEGELNGRRGMFPDNFVKECKR, the abundance fitness is -0.25 ± 0.32.

In the case of MVDYIVEYDYDAVHDDELTIRVGEIIRNVKKLQEEGWLEGELNGRRGMFPDNFVKEMKR, the abundance fitness was -0.205 ± 0.35.

As for MVDYIVEYDYDAVHDDELTIRVGEIIRNVKKLQEEGWLEGELNGRRGMFPDNFVKEIKM, the abundance fitness was -0.058 ± 0.1.

MVDYIVEYDYDAVHDDELTIRVGEIIRNVKKLQEEGWLEGELNGRRGMFPDNFVKEIKT: the abundance fitness was -0.011 ± 0.32.

In the case of MVDYIVEYDYDAVHDDELTIRVGEIIRNVKKLQEEGWLEGELNGRRGMFPDNFVKEIKH, the abundance fitness came to 0.107 ± 0.14.

For the variant MVDYIVEYDYDAVHDDELTIRVGEIIRNVKKLQEEGWLEGELNGRRGMFPDNFVKEIKL, the abundance fitness stood at 0.063 ± 0.11.

MVDYIVEYDYDAVHDDELTIRVGEIIRNVKKLQEEGWLEGELNGRRGMFPDNFVKEIKK: the abundance fitness was determined as 0.012 ± 0.14.

Regarding MVDYIVEYDYDAVHDDELTIRVGEIIRNVKKLQEEGWLEGELNGRRGMFPDNFVKEIKG, the abundance fitness amounted to 0.011 ± 0.097.

Regarding MVDYIVEYDYDAVHDDELTIRVGEIIRNVKKLQEEGWLEGELNGRRGMFPDNFVKEIKW, the abundance fitness is -0.126 ± 0.1.

As for MVDYIVEYDYDAVHDDELTIRVGEIIRNVKKLQEEGWLEGELNGRRGMFPDNFVKEIKC, the abundance fitness was determined as 0.035 ± 0.29.

In the case of MVDYIVEYDYDAVHDDELTIRVGEIIRNVKKLQEEGWLEGELNGRRGMFPDNFVKEIKP, the abundance fitness worked out at 0.2 ± 0.15.

MVDYIVEYDYDAVHDDELTIRVGEIIRNVKKLQEEGWLEGELNGRRGMFPDNFVKEIKA: the abundance fitness is -0.303 ± 0.22.

MVDYIVEYDYDAVHDDELTIRVGEIIRNVKKLQEEGWLEGELNGRRGMFPDNFVKEIKE: the abundance fitness was found to be 0.138 ± 0.12.

Turning to MVDYIVEYDYDAVHDDELTIRVGEIIRNVKKLQEEGWLEGELNGRRGMFPDNFVKEIKQ, the abundance fitness amounted to 0.024 ± 0.25.

MVDYIVEYDYDAVHDDELTIRVGEIIRNVKKLQEEGWLEGELNGRRGMFPDNFVKEIKY: the abundance fitness was -0.156 ± 0.26.

As for MVDYIVEYDYDAVHDDELTIRVGEIIRNVKKLQEEGWLEGELNGRRGMFPDNFVKEIKF, the abundance fitness is -0.182 ± 0.22.

For MVDYIVEYDYDAVHDDELTIRVGEIIRNVKKLQEEGWLEGELNGRRGMFPDNFVKEIKS, the abundance fitness was found to be 0.052 ± 0.1.

The variants in the next series derive from B2. Described as above. The note with it: Homo sapiens.
Turning to TFRLSPAARNILEKHSLDASQGTATGPRGIFTKEDALKLVQLKQTGK, the abundance fitness is -1.29 ± 0.45.

For KFRLSPAARNILEKHSLDASQGTATGPRGIFTKEDALKLVQLKQTGK, the abundance fitness is -0.289 ± 0.17.

With AFRLSPAARNILEKHSLDASQGTATGPRGIFTKEDALKLVQLKQTGK, the abundance fitness amounted to 0.02 ± 0.23.

On to QFRLSPAARNILEKHSLDASQGTATGPRGIFTKEDALKLVQLKQTGK, for which the abundance fitness was -0.362 ± 0.32.

Regarding SFRLSPAARNILEKHSLDASQGTATGPRGIFTKEDALKLVQLKQTGK, the abundance fitness was 0.145 ± 0.095.

Consider VFRLSPAARNILEKHSLDASQGTATGPRGIFTKEDALKLVQLKQTGK, for which the abundance fitness was -0.685 ± 0.054.

(Values after the Human Domainome abundance scans (Beltran et al. 2025).)
